Experimental data from patent publication US20130224191A1, “NOTUM PROTEIN MODULATORS AND METHODS OF USE” (priority 2010, published 2013).

Assays:
[1] = system: Wnt3A-mediated induction of luciferase in the 293.TCF cells; test: Wnt3A canonical signaling assay, bioactivity of Notum constructs; assay type: cell-based, human
Excerpt: To generate a stable population of cells that contain a reporter for the activation of canonical Wnt signaling, HEK 293T cells were transduced with a lentiviral vector, pGreenFirel-TCF (System Biosciences) which encodes a bifunctional GFP and luciferase reporter cassette under the control of a minimal CMV reporter linked to four tandem repeats of the transcriptional response elements for TCF. Transduced cells populations, termed 293.TCF cells, were subsequently used in a Wnt3A canonical signaling assay as follows: 2.5×10^4 293.TCF cells were plated per well of a 96-well tissue culture plate in 50 μL of serum-free DME medium. After 24 hours of serum starvation, 25 μL of various dilutions of conditioned medium (CM) from L/Wnt3A cells (ATCC CRL-2647; Willert, 2003) or undiluted CM from parental L-cells (ATCC CRL-2648) along with 25 μL of DMEM+0.2% FBS were added to each well. Eighteen hours after addition of CM, 100 μL of One-Glo solution (ProMega Corp.) was added to each well. The contents of each well were then mixed thoroughly to lyse the cells, 100 μL of lysate transferred to black 96-well plates, and the luminescence in each well read after 5 mins using a Wallac Victor3 Multilabel Counter (Perkin-Elmer Corp). […] More particularly, as the Wnt3A+ CM media is diluted from 25% down to approximately 3%, activation of the Wnt pathway is reduced with a corresponding decrease in luminescence.
Once the luciferase reporter system was established, assays for determining the bioactivity of various Notum modulators were performed as follows. 2.5×10^4 293.TCF cells were plated per well of a 96-well tissue culture plate in 50 μL of serum-free medium. After 23 hours of serum starvation, 25 μL of DMEM+0.2% FBS containing various Notum modulators at various concentrations (e.g., hNotum-His, hNotum-hFc, hNotum-S232A-His, murine Notum-His, murine Notum-hFc, macaque Notum-hFc, control protein-His or control protein-hFc obtained as per Examples 7, 8 and 13 above), were added to the cells. After 1 hour, 25 μL of Wnt3A or control L-cell CM were added to each well. Eighteen hours after addition of CM, 100 μL of One-Glo solution (ProMega Corp.) was added to each well, the contents of each well mixed thoroughly to lyse the cells, 100 μL of lysate transferred to black 96-well plates, and the luminescence read after 5 minutes.

[2] = system: mouse lineage-depleted NTX tumor cells from SCRx-CR4; test: Cell survival/proliferation, CellTiterGlo, SCRx-CR4; assay type: cell-based, human; conditions: 1 or 10 μg/mL, 14 days
Procedure: To determine whether Notum protein impacts cell proliferation and/or apoptosis of human colorectal cancer cells, HCT-116 cells or mouse lineage-depleted NTX tumor cells (i.e. human tumor cells) were plated as described below and exposed to recombinant hNotum (e.g. hNotum-His or hNotum-hFc) and anti-Notum antibodies. Cell numbers were then assessed 12-14 days later.
Cells were then incubated for 14 days at 37° C., 5% CO2 and 5% O2 and the number of viable cells was assessed using Promega's CellTiterGlo assay kit per the manufacturer's instructions. For the HCT-116 cell line (a commercially available colorectal tumor cell line), cells were plated at 2,000 cells per well in DMEM+1% FBS, followed 24-hours later by the addition of serum free DMEM containing recombinant human Notum in the presence or absence of monoclonal antibodies SC2.D2.2 or SC2.10B3. HCT-116 cells were then incubated for 12 days at 37° C., 5% CO2 and cell viability was assessed with Promega's CellTiterGlo assay kit. Higher readings are indicative of higher viable cell counts.

rhWnt3A = biological target: T1, rhWnt3A (Homo sapiens, UniProt P56704); test: Triton X114 partition assay, delipidation of rhWnt3A by Notum; assay type: biochemical; conditions: overnight incubation
T1 construct: purchased R & D Systems
T1 sequence (P56704 19-352): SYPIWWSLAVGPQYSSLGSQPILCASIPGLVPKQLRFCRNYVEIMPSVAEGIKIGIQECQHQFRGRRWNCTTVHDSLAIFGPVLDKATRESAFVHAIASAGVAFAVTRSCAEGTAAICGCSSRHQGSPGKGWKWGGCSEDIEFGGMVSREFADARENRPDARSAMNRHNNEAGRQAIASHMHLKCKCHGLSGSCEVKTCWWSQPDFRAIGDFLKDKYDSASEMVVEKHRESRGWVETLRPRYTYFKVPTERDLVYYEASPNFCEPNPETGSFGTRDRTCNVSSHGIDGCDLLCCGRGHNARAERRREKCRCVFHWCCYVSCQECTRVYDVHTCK
Excerpt: If Notum directly acts upon Wnt3A to delipidate the protein, this cleavage should result in a change in the hydrophobicity of the protein, which can be measured by a change in its partitioning behavior between aqueous and detergent phases in a Triton X114 partition assay (Bordier, 1981, PMID: 6257680): lipidated Wnt3A will be found in the […], whereas delipidated Wnt3A should show up in the […] (Willert et al., 2003, PMID: 12717451). […] An equal volume of 4.5% Triton X114 was added to the mixture, the mixture incubated on ice for 5 minutes, then at 37° C. for five minutes, before separating the phases using centrifugation at 2000×g for five minutes at room temperature. Following separation each sample was adjusted to normalize the ionic strength and Triton X114 content before analyzing the aliquots by PAGE electrophoresis. After running the gel the protein bands were transferred to a membrane for immunoblotting using an anti-rhWnt3A antibody (Cell Signaling Technology). Bands were visualized using SuperSignal West Pico Chemiluminescent substrate (Thermo Fisher Scientific).

B1: hNotum-Fc: recombinant human Notum fused to human IgG2 Fc, SEQ ID NO: 333 (protein)
chain: MYRMQLLSCIALSLALVTNSSEGRKTWRRRGQQPPPPPRTEAAPAAGQPVESFPLDFTAVEGNMDSFMAQVKSLAQSLYPCSAQQLNEDLRLHLLLNTSVTCNDGSPAGYYLKESRGSRRWLLFLEGGWYCFNRENCDSRYDTMRRLMSSRDWPRTRTGTGILSSQPEENPYWWNANMVFIPYCSSDVWSGASSKSEKNEYAFMGALIIQEVVRELLGRGLSGAKVLLLAGSSAGGTGVLLNVDRVAEQLEKLGYPAIQVRGLADSGWFLDNKQYRHTDCVDTITCAPTEAIRRGIRYWNGVVPERCRRQFQEGEEWNCFFGYKVYPTLRCPVFVVQWLFDEAQLTVDNVHLTGQPVQEGLRLYIQNLGRELRHTLKDVPASFAPACLSHEIIIRSHWTDVQVKGTSLPRALHCWDRSLHDSHKASKTPLKGCPVHLVDSCPWPHCNPSCPTVRDQFTGQEMNVAQFLMHMGFDMQTVAQPQGLEPSELLGMLSNGSISAMVRSVECPPCPAPPVAGPSVFLFPPKPKDTLMISRTPEVTCVVVDVSHEDPEVQFNWYVDGVEVHNAKTKPREEQFNSTFRVVSVLTVVHQDWLNGKEYKCKVSNKGLPAPIEKTISKTKGQPREPQVYTLPPSREEMTKNQVSLTCLVKGFYPSDIAVEWESNGQPENNYKTTPPMLDSDGSFFLYSKLTVDKSRWQQGNVFSCSVMHEALHNHYTQKSLSLSPGK
antagonism of Wnt3A-mediated induction of luciferase [1]: functionally antagonize | increase in cell counts [2]: 20-45% | redistribution of rhWnt3A between Triton X114 and aqueous phase (rhWnt3A): leads to a redistribution of the rhWnt3A into the aqueous phase
